From patent US6649392 (US Dept. of Health and Human Services, dated 2003)

T1: RNase A (bovine pancreatic) (bovine, UniProt P61823 27-150)
T1 construct: also called bovine RNase A
T1 sequence (looked up): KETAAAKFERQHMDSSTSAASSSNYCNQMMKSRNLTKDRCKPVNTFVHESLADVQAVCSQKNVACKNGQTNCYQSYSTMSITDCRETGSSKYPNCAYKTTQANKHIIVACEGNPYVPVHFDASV

B1: recombinant Met(-1) human pancreatic ribonuclease (enzyme)
chain: MKESRAKKFQRQHMDSDSSPSSSSTYCNQMMRRRNMTQGRCKPVNTFVHEPLVDVQNVCFQEKVTCKNGQGNCYKSNSSMHITDCRLTNGSRYPNCAYRTSPKERHIIVACEGSPYVPVHFDASVEDST
notes: mature; also called rhRNase; hRNase
B2: native Onc purified from the eggs of Rana pipiens (enzyme, UniProt P22069 1-104, looked up)
chain: QDWLTFQKKHITNTRDVDCDNIMSTNLFHCKDKNTFIYSRPEPVKAICKGIIASKNVLTTSEFYLSDCNVTSRPCKYKLKKSTNKFCVTCENQAPVHFVGVGSC
modifications: pyroglutamyl residue at position 1 (amino terminus)
notes: mature; also called nOnc; ONCONASE
B3: placental ribonuclease inhibitor (other, UniProt P13489 2-461, looked up)
chain: SLDIQSLDIQCEELSDARWAELLPLLQQCQVVRLDDCGLTEARCKDISSALRVNPALAELNLRSNELGDVGVHCVLQGLQTPSCKIQKLSLQNCCLTGAGCGVLSSTLRTLPTLQELHLSDNLLGDAGLQLLCEGLLDPQCRLEKLQLEYCSLSAASCEPLASVLRAKPDFKELTVSNNDINEAGVRVLCQGLKDSPCQLEALKLESCGVTSDNCRDLCGIVASKASLRELALGSNKLGDVGMAELCPGLLHPSSRLRTLWIWECGITAKGCGDLCRVLRAKESLKELSLAGNELGDEGARLLCETLLEPGCQLESLWVKSCSFTAACCSHFSSVLAQNRFLLELQISNNRLEDAGVRELCQGLGQPGSVLRVLWLADCDVSDSSCSSLAATLLANHSLRELDLSNNCLGDAGILQLVESVRQPGCLLEQLVLYDIYWSEEMEDRLQALEKDKPSLRVIS
notes: also called PRI

Experiments:
[1] = molecular target: B3; experiment: steady-state inhibition of RNase activity by PRI
Method: (§1) Steady-state inhibition constants (K_i) for PRI interaction were determined using a modification of a method (Vincentini et al., Biochemistry 29:8827–8834 (1990)) to analyse competitive slow tight-binding inhibition mechanisms. Steady-state rates of product formation were calculated by a spectrophotometric method. […] The reaction was started by the addition of enzyme (0.01 to 2 nM depending on the assayed protein) and followed during 90–120 min. Several inhibitor concentrations were distributed below and above the enzyme concentration. […] The amount of product formed was calculated by following the absorbance decrease at 286 nm for CpA (change in ε=521 M^-1) and at 280 nm for UpG (change in ε=757 M^-1 cm^-1). The calculated steady-state rates for each inhibitor concentration were fitted by nonlinear regression to the equation for tight binding inhibition as described by Vicentini et al. (1990). In each case $I50$, defined as the total inhibitor concentration required to give 50% inhibition, were deduced from the V_s-I Dixon plot and compared to the calculated K_i, considering in each case the total enzyme concentration.
(§2) [a]K_i values were calculated from the observed steady-state rates (v_s) at different inhibitor concentrations, by fitting the data to the tight-binding non-linear regression equation.

[2] = molecular target: rOnc1-9-hRNase12-127 hybrid (Rana pipiens; human) (UniProt P07998); experiment: steady-state tight-binding inhibition of RNase activity (CpA substrate, spectrophotometric); row rOnc1-9-hRNase12-127
[3] = molecular target: rOnc1-9-hRNase12-127 hybrid (Rana pipiens; human) (UniProt P07998); experiment: steady-state inhibition of RNase activity by PRI
[4] = molecular target: rhRNase1-11-rOnc10-104 hybrid (human; Rana pipiens) (UniProt P07998); experiment: approximate Ki from I50, inhibition of RNase activity by PRI
[5] = molecular target: B2; experiment: approximate Ki calculated from I50, inhibition of RNase activity (UpG substrate, spectrophotometric); row nOnc
Method: as §1, §2

[6] = molecular target: B1; experiment: steady-state tight-binding inhibition of RNase activity (CpA substrate, spectrophotometric); row rhRNase
Method: as §1, §2

[7] = molecular target: rhRNase1-11-rOnc10-104 hybrid (human; Rana pipiens) (UniProt P07998); experiment: approximate Ki calculated from I50, inhibition of RNase activity (UpG substrate, spectrophotometric); row rhRNase1-11-Onc10-104
[8] = molecular target: T1, RNase A (bovine pancreatic); experiment: steady-state tight-binding inhibition of RNase activity (CpA substrate, spectrophotometric); row RNaseA
Method: as §1, §2

Row | Binder | binding result [1] | Ki [2] [nM] | fold increase of Ki in relation to rhRNase [3] [fold] | fold increase of PRI affinity in relation to Onc [4] [fold] | Ki [5] [nM] | Ki [6] [nM] | Ki [7] [nM] | Ki [8] [pM]
1 | B1 | binds |  |  |  |  |  |  | 
2 | B2 | binds |  |  |  |  |  |  | 
3 | B3 |  | 0.0056 | 30 | 3 | ≥ 100000 | 0.0002 | > 400 | 0.058
